In assay [1] the target is H1N1 influenza neuraminidase (influenza H1N1 (strain not stated)).
In assay [2] the target is H3N2 influenza neuraminidase (influenza H3N2 (strain not stated)).
In assay [3] the target is influenza H5N1 neuraminidase (H5N1 A/Thailand/1(KAN-1)/2004) (influenza A virus H5N1 A/Thailand/1(KAN-1)/2004).

Values joined by “and” are separate entries in the source; they are usually repeats but may differ in a detail not shown here. Equal entries are not always repeated.

From patent publication US20170183645A1 come the findings set out here.

B1: Bivalent homodimer of humanized anti-Flu neuraminidase VHH (clone Flu h27-8GL.h27-8GL) (VHH)
chain: QVQLVESGGGLVQPGGSLRLSCAASGGTFSSYVMGWFRQAPGKGLESVASITRDGDTTFYADSVKGRFTISRDNSKNTLYLQMNSLRAEDTAVYYCAAAVQYGTLWSRQYDYWGQGTLVTVSSAHHSEDPSSKAPKAPMAQVQLVESGGGLVQPGGSLRLSCAASGGTFSSYVMGWFRQAPGKGLESVASITRDGDTTFYADSVKGRFTISRDNSKNTLYLQMNSLRAEDTAVYYCAAAVQYGTLWSRQYDYWGQGTLVTVSS
As for B1, the ELISA reactivity compared to control protein (BSA) in assay [1] was 2.44 and 1.31; in assay [2], 1.67 and 1.13; in assay [3], 3.73 and 2.15.

B2: Anti-Flu neuraminidase VHH (clone Flu 27-8) (VHH)
VHH: QVQLVESGGRLVQAGGSLRVACVASGGTFSSYVMGWFRQAPGKERESVASITRDGDTTFYADSVKGRFTIARDNAKNTVYLQMNSLQPEDTGVYYCAAAVQYGTLWSRQYDYWGQGTQVTVSS
With B2, the ELISA reactivity compared to control protein (BSA) in assay [1] turned out to be 1.89; in assay [2], 1.08; in assay [3], 2.48.

B3: humanized VHH h27-8GL (monovalent) (VHH)
VHH: QVQLVESGGGLVQPGGSLRLSCAASGGTFSSYVMGWFRQAPGKGLESVASITRDGDTTFYADSVKGRFTISRDNSKNTLYLQMNSLRAEDTAVYYCAAAVQYGTLWSRQYDYWGQGTLVTVSS
Consider B3, for which the ELISA reactivity compared to control protein (BSA) in assay [1] is 1.62 and 1.21; in assay [2] it was 1.34 and 1.09; in assay [3], 2.27 and 1.78.
